Measurements as given in paper PMC5723419.

Target: Aminopeptidase P from Pseudomonas aeruginosa (Pa-PepP) (Pseudomonas aeruginosa PA14)
Experiment: crystal structure

## Aminopeptidase P from Pseudomonas aeruginosa (Pa-PepP) (enzyme)
  stoichiometry N: 4
